Source: patent US20260234738A1 (Regeneron, published 2026)
Several values for one entry are separate records, joined by “and”; a condition that tells them apart may be missing. Equal values may be shown once.

How the values were obtained:
[1] = molecular target: SARS-COV-2 Spike protein receptor binding domain (amino acids Arg319-Phe541) expressed with the Fc p (SARS-CoV-2)
[2] = molecular target: Bt-SARS-CoV-2 Spike Protein (RBD) (R319-F541).mFc (SARS-CoV-2); assay: Luminex beads, supernatant
[3] = molecular target: SARS-CoV-2 Spike Protein (RBD) (R319-F541).hFc (SARS-CoV-2); assay: Luminex beads, supernatant
[4] = molecular target: SARS-CoV-2 Spike Protein (RBD) (R319-F541).mFc (SARS-CoV-2); assay: Luminex beads, supernatant

Binder | IC50 [1] | MFI [2] [MFI] | MFI [3] [MFI] | MFI [4] [MFI]
mAb10989 (antibody, V domains shown) VH: QVQLVQSGAEVKKPGASVKVSCKASGYIFTGYYMHWVRQAPGQGLEWMGWINPNSGGANYAQKFQGRVTLTRDTSITTVYMELSRLRFDDTAVYYCARGSRYDWNQNNWFDPWGQGTLVTVSS VL: QSALTQPASVSGSPGQSITISCTGTSSDVGTYNYVSWYQQHPGKAPKLMIFDVSNRPSGVSDRFSGSKSGNTASLTISGLQAEDEADYYCSSFTTSSTVVFGGGTKLTVLG | 0.0591 nM and 0.0428 nM |  |  | 
mAb10966 (antibody, V domains shown) VH: EVQLVESGGGLVQPGGSLRLSCAASGLTVSSNYMSWVRQAPGKGLEWVSVIYSGGSTFYADSVKGRFTISRDNSKNTLYLQMNSLRPEDTAVYYCAREGRIAATGYGMDVWGQGTTVTVSS VL: not shown | 0.16 nM |  |  | 
mAb10915 (antibody, V domains shown) VH: EVQLVESGGGLVQPGGSLRLSCAASGFTVSSNYMNWVRQAPGKGLEWVSVIYSGGSTFYADSVKGRFTISRHNSKNTLYLQMNSLRPEDTAVYYCARDLGGYFDYWGQGTLVTVSS VL: not shown |  | 20100 | 32400 | 31800
mAb10937 (antibody, V domains shown) VH: QITLKESGPTLVKPTQTLTLTCTFSGFSLSTNVVGVGWIRQPPGKALEWLALIYWNDDKRYSPSLKSRLTITKDTSKNQVVLTMTNMDPVDTATYYCAHGPTGDYFDYWGQGTLVTVSS VL: not shown |  | 19700 | 34600 | 34200
mAb10932 (antibody, V domains shown) VH: EVQLVESGGGLVQSGGSLRLSCAASGLTVSSNYMSWVRQAPGKGLEWVSVIYSGGSTFYSDSVKGRFTISRHNSKNTLYLQMNSLRAEDTAVYYCARARGDAFDIWGQGTMVTVSS VL: not shown |  | 17700 | 30600 | 30600
mAb10913 (antibody, V domains shown) VH: EVQLVESGGGLVQPGGSLRLSCAASGFTFRNYEMNWVRQAPGKGLEWVSYITSSGSTMYYADSVKGRFTISRDNAKNSLYLQMNSLRAEDTAVYYCARDGFYYYYAMDVWGQGTTVTVSS VL: QSVLTQPPSVSAAPGQKVTISCSGSSSNIGNNYVSWYQQLPGTAPKLLIYDNNKRPSGIPDRFSGSKSGTSATLGITGLQTGDEADYYCGTWDSSLSVGRVFGTGTKVTVLG |  | 16600 | 31900 | 33000
mAb10998 (antibody, V domains shown) VH: EVQLVESGGGLVHPGGSLRLSCAASGLTVSSNYMSWVRQAPGKGLEWVSVIYSGGSTYYADSVKGRFTISRHNSKNTLFLQMNSLRAEDTAVYYCARDRPITGTTLDVWGQGTTVTVSS VL: DIQMTQSPSSLFASVGDRVTITCRASQSISSYLNWYQQKPGKAPKLLIYAASSLQSGVPSRFSGSGSGTDFTLTISSLQPEDFAFYYCQQTYSTPPITFGQGTRLEIKR | 4.3 nM |  |  | 
mAb10982 (antibody, V domains shown) VH: EVQLVESGGGLVQPGGSLRLSCAASGLTVSSNYMSWVRQAPGKGLEWVSVIYSGGTTYYADSVKGRFTISRHNSKNTLSLQMNSLRAEDTAVYYCARGEGANYYGMDVWGQGTTVTVSS VL: QSVLTQPPSVSGAPGQRVTISCTGSSSNIGTGYDVHWYQQLPGTAPKLLIYGNSNRPSGVPDRFSGSKSGTSASLAITGLQAEDEADYYCQSYDSSLSGYVVFGGGTKLTVLG | 0.116 nM |  |  | 
mAb10985 (antibody, V domains shown) VH: EVQLVESGGGLVQPGRSLRLSCAASGFTFDDYAMHWVRQAPGKGLEWVSGISWNRGSIGYADSVKGRFTISRDNAKNSLYLQMSSLRAEDTALYYCAKDGERWDSVVVPSARNGMDVWGQGTTVTVSS VL: QSVLTQPPSVSGAPGQRVTISCTGSSSNIGAGYDVHWYQQLPGTAPKLLIYGNSNRPSGVPDRFSGSKSGTSASLAITGLQAEDEADYYCQSYDSSLSGSYVFGTGTKVTVLG | 0.0696 nM and 0.0411 nM |  |  | 
mAb10986 (antibody, V domains shown) VH: EVQLVESGGGLVQPGGSLRLSCAASEFTVSSNYMSWVRQAPGKGLEWVSVIYSGGSTFYADSVKGRFTISRDNSKNTLYLQMNSLRAEDTAVYYCARALPYGDLHFDYWGQGTLVTVSS VL: QSVLTQPPSVSGAPGQRVTISCTGSSSNIGTGYDVHWYQQLPGTAPKLLIYGNTNRPSGVPDRFSGSKSGTSASLAITGLQAEDEADYYCQSYDSSLSDSYVFGTGTKVTVLG [mAb10986, listing 1 of 2 here] | 0.0754 nM |  |  | 
mAb10986 (antibody, V domains shown) VH: EVQLVESGGGLVQPGGSLRLSCAASEFTVSSNYMSWVRQAPGKGLEWVSVIYSGGSTFYADSVKGRFTISRDNSKNTLYLQMNSLRAEDTAVYYCARALPYGDLHFDYWGQGTLVTVSS VL: QSVLTQPPSVSGAPGQRVTISCTGSSSNIGTGYDVHWYQQLPGTAPKLLIYGNTNRPSGVPDRFSGSKSGTSASLAITGLQAEDEADYYCQSYDSSLSDSYVFGTGTKVTVLG [mAb10986, listing 2 of 2 here] |  | 15900 |  | 28400
mAb11010 (antibody, V domains shown) VH: QVQLVESGGGVVQPGRSLRLSCAASGFTFSSYGMHWVRQAPGKGLEWVAVISYDGSYKYYADSVKGRFTISRDNSKNTLYLQMNSLRAEDTAVYYCAIDGGTVTTIFDYWGQGTLVTVSS VL: not shown | 0.147 nM |  |  | 
mAb10984 (antibody, V domains shown) VH: EVQLVESGGGLVQPGGSLRLSCAASGLTVNRNYMSWVRQAPGKGLEWVSLIYSGGSTYYADSVKGRFTISRDNSKNTLYLQMNSLRLEDTAVYYCARGELGIPYGMDVWGQGTTVTVSS VL: QSVLTQPPSVSAAPGQKVTISCSGSSSNIGNNYVSWYQQLPGTAPKLLIYDNNKRPSGIPDRFSGSKSGTSATLGITGLQTGDEADYYCGTWDSSLSAGVFGGGTKLTVLG | 0.0775 nM |  |  | 
mAb10971 (antibody, V domains shown) VH: EVQLVESGGGLIQPGGSLRLSCAASGVTVSSNYMSWVRQAPGKGLEWVSVIYSGGSTFYSDSVKGRFSISRDNSKNTLYLQMNSLRAEDTAVYYCARDLYYYGMDVWGQGTTVTVSS VL: DIQLTQSPSFLSASVGDRVTITCRASQGISTYLAWYQQKPGKAPKLLIYAASTLQSGVPSRFSGSGSGTEFTLTISSLQPEDFATYYCQQLDSYPGLTFGGGTKVEIKR | 0.149 nM |  |  | 
mAb10934 (antibody, V domains shown) VH: not shown VL: DIQMTQSPSSLSASVGDRVTITCQASQDIWNYINWYQQKPGKAPKLLIYDASNLKTGVPSRFSGSGSGTDFTFTISSLQPEDIATYYCQQHDDLPPTFGQGTKVEIKR |  | 21200 | 35800 | 34300
mAb10935 (antibody, V domains shown) VH: EVQLVESGGGLVQPGGSLRLSCAASGFTVSSNYMSWVRQAPGKGLEWVSLIYSGGSTYYADSVKGRFTISRHNSKNTLYLQMNSLRSEDTAVYYCARVPLGDYYYGMDVWGQGTTVTVSS VL: DIQMTQSPSSLSASVGDRVTITCQASQDINKYLNWYQQKPGKAPKLLIYDASNLETGVPSRFSGSGSGTDFTFTISSLQPEDIATYYCQQSDNLPLTFGGGTKVEIKR |  | 19300 | 35600 | 35900
mAb10967 (antibody, V domains shown) VH: EVQLVESGGGLVQPGGSLRLSCAASGFTVSSNYMSWVRQAPGKGLEWVSVIYPGGSTFYADSVKGRFTISRDNSKNTLYLQMNSLRAEDTAVYYCARDQRDFAWGQGTLVTVSS VL: DIQMTQSPSSLSASVGDRVTITCQASQDISNYLNWYQQKPGKAPKLLIYDASNLETGVPSRFSGSGSGTDFTFTISGLQPEDIATYYCQQYDNLPPTFGQGTRLEIKR | 0.28 nM |  |  | 
mAb10920 (antibody, V domains shown) VH: QVQLVESGGGVVQPGRSLRLSCAASGFTFSYYGMHWVRQAPGKGLEWVAVIWYDGSNKFYADSVKGRFTISRDNSKNTLYLQMNSLRAEDTAVYYCAAARPGYYYGMDVWGQGTTVTVSS VL: DIQMTQSPSSLSASVGDRVTITCRASQGISNYLAWFQQKPGKAPNSLIYAASSLQRGVPSKFSGSGSGTDFTLTISSLQPEDFATYYCQQYNSYPRTFGQGTKVEIKR |  | 20300 | 36800 | 36400
mAb10921 (antibody, V domains shown) VH: EVQLVESGGGLVQPGGSLRLSCAASGITVSSNYMSWVRQAPGKGLEWVSVIYSGGSTFYADSVKGRFTISRHNSKNTLYLQMNSLRAEDTAVYYCARERNFDAFDIWGQGTMVTVSS VL: DIQMTQSPSSVSASVGDRVTITCRASQGISSWLAWYQQKPGKAPKLLIYAASSLQSGVPSRFSGSGSGTDFTLTISSLQPEDFATYYCQQANSFPLFTFGPGTKVDIKR |  | 11300 | 22300 | 19400
mAb10914 (antibody, V domains shown) VH: EVQLVESGGGLVQPGGSLRLSCAASGLIVSRNYMIWVRQAPGKGLEWVSVIYSGGSTFYADSVKGRFTISRHNSKNTLYLQMNSLRAEDTAVYYCARDLGTGGMDVWGQGTTVTVSS VL: DIQLTQSPSFLSASVGDRVTITCWASQGISSYLAWYQQKPGKAPKLLIYAASTLQSGVPSRFSGSGSGTEFTLTISSLQPEDFATYYCQQLNSYPLTFGGGTKVEIKR |  | 16000 | 30500 | 30700
mAb11008 (antibody, V domains shown) VH: EVQLVESGGGLVQPGGSLRLSCAASGFTVSSNYMTWVRQAPGKGLEWVSVIYSGGSTFYADSVKGRFTISRHNSENTLYLQMNSLRAEDTAVYYCARDLAAAGTDYWGQGALVTVSS VL: DIQLTQSPSFLSASVGDRVTITCWASQGISSYLAWYQQKPGKAPKLLIYAASTLQSGVPSRFSGSGSGTEFTLTISSLQPDDFATYYCQHLNSYLYTFGQGTKLEIKR | 1.49 nM |  |  | 
mAb11006 (antibody, V domains shown) VH: EVQLVESGGGLVQPGGSLRLSCAASGFIVSRNYMSWVRQAPGKGLEWVSVIYSGGSTFYADSVKGRFTISRHNSKNTLYLQMNSLKAEDTAVYYCARELRGYFDYWGQGTLVTVSS VL: DIQLTQSPSFLSASVGDRVTITCWASQGISSYLAWYQQKPGKAPKLLIYAASTLQSGVPSRFSGSGSGTEFTLTISSLQPEDFATYYCQLLNSYPYTFGQGTKLEIKR | 0.22 nM |  |  | 
mAb10936 (antibody, V domains shown) VH: QVQLVESGGGVVQPGRSLRLSCAASGFTFRNYGMHWVRQAPGKGLEWVSVIWYDGSNRYYADSVKGRFTISRDTSKNTLYLQMNSLRAEDTAVYYCARDPPITGTTGGDAFDIWGQGTMVTVSS VL: not shown |  | 21600 | 33900 | 33700
